Results taken from the DeepSol protein solubility set.

assay: soluble on expression in E. coli; label from the status in PepcDB or PDB records

Soluble on expression in E. coli, not soluble:
MGSDKIHHHHHHMSETELRKRQAQFTRELHGDDIGKKTGLSALMSKNNSAQKEAVQKYLRNWDGRTDKDAEERRLEDYNEATHSYYNVVTDFYEYGWGSSFHFSRFYKGESFAASIARHEHYLAYKAGIQRGDLVLDVGCGVGGPAREIARFTGCNVIGLNNNDYQIAKAKYYAKKYNLSDQMDFVKGDFMKMDFEENTFDKVYAIEATCHAPKLEGVYSEIYKVLKPGGTFAVYEWVMTDKYDENNPEHRKIAYEIELGDGIPKMFHVDVARKALKNCGFEVLVSEDLADNDDEIPWYYPLTGEWKYVQNLANLATFFRTSYLGRQFTTAMVTVMEKLGLAPEGSKEVTAALENAAVGLVAGGKSKLFTPMMLFVARKPENAETPSQTSQEATQ
MGSDKIHHHHHHMSFISKGAKIGENLKIGRNVVIEDGVVIGNNVMIGHNVVIRDGTIVGDNCVIFDGTVLGKLPFKSAISAVTEEKEFPPLKIGNGVTIGANCVIYRGSVLEDFVFVGDLVVIREDVKIGPYTVIGKGVTVENRTTIGRYVKIETNAYITALSTIEDYCFIAPEVTFTNDNFLGRTEERKKFFKGPTLKKGARIGANATILPGVVVGEDALVAAGSVVTRDVPDRKIVMGIPARVVRDVPEEQLLDNQSYYKEESS
MGSDKIHHHHHHMSFTSLPLTEINHKLPARNIIESQWITLQLTLFAQEQQAKRVSHAIVSSAYRKAEKIIRDAYRYQREQKVEQQQELACLRKNTLEKMEVEWLEQHVKHLQDDENQFRSLVDHAAHHIKNSIEQVLLAWFDQQSVDSVMCHRLARQATAMAEEGALYLRIHPEKEALMRETFGKRFTLIIEPGFSPDQAELSSTRYAVEFSLSRHFNALLKWLRNGEDKRGSDEY
MGSDKIHHHHHHMSHVSLKDVQVLAPNFKRRLSGVTSTIVQLIPVQNRLGQKVGTIGPGLPPHLPHVRFRDLWRLWQNGPSGGPRIWHARRNLEMLPGIFMRDVLRMKVKLLFTSAAQRRHSAYTRFLISKMDAVVATSTRSGSFLEVPHRVVMHGVDTELFHPATGPEDTIAATGLPGHYLLGCFGRVRHQKGTDLFVRAMIELLPHYPQWTAVVSGRVTAEHKAFGDTLKADVAAAGLTDRIIFQGEVDDIKPWYRRLTLYVAPSRNEGFGLTPLEAMASETAVVASNAGAYEEMIVTGETGWVVGAGDYASLRDAIKTYLADPALAKAHASAGLAHVRSTFPLEKEATCLGEVYEALQRG
MGSDKIHHHHHHMSIFFLNNGIMNILQEYSVLNAKVIIYEENGIGYYKVNEPNLDQNEIEILNSILEYIYSTPSVPNIEETVVKILKNKGISDQGIIEKIIYYLRKRIGYDELTVPLADPYVEEIECKGFSYPVTVVHRIVTRFPRLYTNIILEQEDHVLKVIEKLANKADKPVSIAKPYLEFSLPEGHRVAATVSREVSLPGSTFDIRKFPLKPISPISLIKNESISSLMLAYIWFLLDYKPFFLIIGSTGSGKTTLLNSILSMINPFFKVITIEDTPEINIIHDNWIRFFARQSISSQFEVSLMDLAKLSLRYRPDYLVIGEIRGKEIEALVHASASGHGSLATFHAGNPHEALTRLLSLLNKDVAKLFLQNLWGIIVLGTLRDRNGNIRRIIRSIYEIVYTRGKLRFRPVLRWSFSSNTFMPNNIDDLIKRSYRISYISKTYEIPISEITKEISNRVKTLNNFVSNNILDLEEFSVYLKKISQGDKVETKAI
MGSDKIHHHHHHMSIICLALAGCAVEKTEVRTPTFDEQLRPAPPSYANGSIWQASTTGLAVDHKARSRGDIITVLIVEQASASKEATTDTERKAEVSASVPYLMGLEKSSTLFSKLTNANPNNLLGASTNSKYEGSGATTRKENLLATMTAKITDVLPNGNFLIEGRRNVKVNNEDQILVLQGTIRPRDVSPDNTISSTMIADARISYTGNGVISDRQRPGWLMNILDYIWPF
MGSDKIHHHHHHMSILEVRGIEKTYSGKRILKAVSFDLESGKLTVLGGLNGIGKSTLIKMMSGDIRPDSGEIVFDGHHVELRSIVEARRIGLSAVYQEYMLVPDLTVAENIFLGSGKFTISRKKMNSEASRLLSKFGLSFDPSSKVSSLSSDEQALLEFAAAVFSEPKVLMIDDLFSVLQTESRKRLLQMIEVIKNKGTAVLVVTTDPDLMLMADHLLFMDESGVEYLPCPIERGAILERMGASSDFSILPAEGELLIEISNLAGSGQDLSLKRGEVLNIFCESGELVRAFTRAMIRQDPFTDNSVPLFREAKSFFDRFSSRSSSTPAEKYFCSNLKNTGLVSQVMLKKSGSFKSSKSLKKSFILNKESVVSVKSFLAGLERIPGFSGLVSEEDKKLSQLRFDACDLYVFVRPLLGLDPVSVNALSTVLQEIVNRSKAAVIISDEAGSSMLSTRKMRSSE
MGSDKIHHHHHHMSINFDLNDLQAFRAVVENGSFRKAAESVRITQPALSRRIEKLESALNVKLFERTTRKVSLTTVGRAFLPQVERILDDLDIALMTIGEVGSTRMGSVTIACVPSAAYYFMPQVISAFREDYPKIRVKVLDASANEVNSAVALGEADFGVSFSGNLAPEVDFELLLQERYVMACRRDHSLAIRESVSWEEMYSHDYIALDITSGNRLVLDQALARSRPHKESICETRHVTTMIGLVEAGLGVAAVPSIAMPMTAHPFLVSVPLVEPEVIRNVGLIKRRGRTLTPAALELEQLVRKMPFRSAGN
MGSDKIHHHHHHMSIRIGNAPCSWGVEFADDPRNPTWRSVLKDCAEAGYKGIELGPVGFMPEDPVELGEALAEHDLDLIGGVVFRAYHDPAAWEDVVDATHRTARALRAHGAQHLVLIDSISPRRAPTAGRAAEAEQMDKAEWTAYRNRIAESARIGAEEYGLTVGIHAHAAGFMDFEPELERLLSEVDESLLKICFDTGHHSYAGFDPVAFMKRHVGRISYMHFKDIDPKVKAEVIANRTGFYEACGQGIFCNLGLGDVDFPAVRQVLLEAGFAGWCTVEQDCDPTLDPDPVGDALKNREYLETIGFN
MGSDKIHHHHHHMSIYNSIGKQYSQTRVPDIRIVNAIINLLNLPKGSVIADIGAGTGGYSVALANQGLFVYAVEPSIVMRQQAVVHPQVEWFTGYAENLALPDKSVDGVISILAIHHFSHLEKSFQEMQRIIRDGTIVLLTFDIRLAQRIWLYDYFPFLWEDALRFLPLDEQINLLQENTKRRVEAIPFLLPHDLSDLFAAAAWRRPELYLKAEVRAGISSFALANQDLVEKGLELLTADLNNGEWIRKYGEIHHLQEIDIGYRFIYTTLDK
MGSDKIHHHHHHMSIYNSIGLHYSKTRVPDIRIVNKIIDLLNLPKNSIIADIGAGTGGYSLALANKGFLVNAIEPSLVMQKQAVEHPQVKWFTGYAENLPLLDNSVDTVVSILAIHHFSHLPKAFQEMHRIIKNGAIILLTFDIRLAQKIWLYDYFPFLWEDALQFLPLNEQINLIQINTKRRVEAIPLLLPYDLSDLFAAAGWRRPELYLQAEVRAGISSLALANQDLVDQGVKLLTADLSSEKWRKQYGDIHNLTEIDIGYRFIHTTLNN
MGSDKIHHHHHHMSLFDHKITELKQLIHKKEIKISDLVDESYKRIQAVDDKVQAFLALDEERARAYAKELDEAVDGRSEHGLLFGMPIGVKDNIVTKGLRTTCSSKILENFDPIYDATVVQRLQDAEAVTIGKLNMDEFAMGSSTENSAYKLTKNPWNLDTVPGGSSGGSAAAVAAGEVPFSLGSDTGGSIRQPASFCGVVGLKPTYGRVSRYGLVAFASSLDQIGPITRTVEDNAFLLQAISGVDKMDSTSANVDVPDFLSSLTGDIKGLKIAVPKEYLGEGVGKEARESVLAALKVLEGLGATWEEVSLPHSKYALATYYLLSSSEASANLARFDGIRYGYRTDNADNLIDLYKQTRAEGFGNEVKRRIMLGTFALSSGYYDAYYKKAQKVRTLIKKDFEDVFEKYDVIVGPTTPTPAFKIGENTKDPLTMYANDILTIPVNLAGVPGISVPCGLADGLPLGLQIIGKHFDESTVYRVAHAFEQATDHHKAKPEL
MGSDKIHHHHHHMSLLKVQNLTKEFPLGFFGKERLKAVDDVSFEIERSRIVSLIGESGSGKTTVGKLILKLIRPSSGQILLNGRDITQIKGRELREYYRKVQGVFQDPFSSFNPIYKIDRVLDMVFEEFFPDTPASERRTKMEEVIASVGMNPREILGKYPHQLSGGQLQRILIARTLLLNVELLIADEIISMLDASTRVDILNLLGDLRERGMSVIFITHDLSLGYYISDETFIMYRGNIVEMGDTEKVFHNPIHPYTKMLLESVPEIDRKWDLSKRFIPELVSSSNAPCKYYDRCPIRDERCLVQKPAMVEVEENHKVLCLKAGD
